The values below come from patent publication US20170306018A1 (Bristol-Myers Squibb, published 2017).

The target in assay [1] is T1, human ROR1 (human, UniProt Q01973 30-937).
T1 construct: Endogenous ROR1 on primary B-CLL cells, RPMI8226, Rec-1, SK-OV-3 and PA-1 cells; also called tyrosine-protein kinase transmembrane receptor ROR1; neurotrophic tyrosine kinase, receptor-related 1
The assay can be described thus: flow cytometry on PA-1 cells. As to the method: (§1) a) The level of expression of ROR1 was measured on human ovarian cancer cell lines by flow cytometry including PA-1, COLO-704, ES-2, SK-OV-3, and OVCAR-5. Briefly, cells were harvested, washed, counted for viability, resuspended at 50,000 cells/well of a 96-well round bottom plate and incubated with Alexa488-labeled anti human ROR1 antibody for 30 min at 4° C. All ROR1 and isotype control antibodies were titrated and analyzed in final concentration range between 0.01-100 nM (0.0015-15 μg/mL). […] At the end of incubation time, cells were centrifuged (5 min at 350×g), washed twice with FACS buffer, resuspended in 100 ul FACS buffer and analyzed on a CantoII device running FACS Diva software. Expression of ROR1 was then quantified as the median fluorescence intensity (MFI) and graphs showing the MFI in function of ROR1 antibody concentrations were plotted. EC50 values were then measured using Prism software (GraphPad). […] The calculated EC50s for binding of ROR1 Mab1 and ROR1 Mab2 to SK-OV-3 are extrapolated values and may be over- or underestimated. […]
On the technique in general: A flow cytometer gives signals particle by particle.

The target of assay [2] is T1, human ROR1. The assay can be described thus: flow cytometry on SK-OV-3 cells (extrapolated value). As for the experimental part: as §1
Another assay concerns the target T2, human CD3ε (human, UniProt P07766 23-207).
T2 construct: whole, on cells; CD3 on human leukemic Jurkat T cells, as part of the TCR/CD3 complex; also called CD3 epsilon
The assay can be described thus: flow cytometry on Jurkat T cells. As for the experimental part: Anti-ROR1/anti-CD3 T cell bispecific antibodies generated in Example 5 were analyzed by flow cytometry for their binding to human ovarian cancer cell lines PA-1 and SK-OV-3 and human CD3 expressed on human leukemic T cells Jurkat (ATCC TIB-152). Jurkat T cells were cultured in RPMI1640 medium supplemented with 10% fetal calf serum. Briefly, cultured cells were harvested, counted and cell viability is evaluated using ViCell. Viable cells were then adjusted to 2×10⁶ cells per ml in FACS Stain Buffer (BD Biosciences) containing 0.1% BSA. 100 μl of this cell suspension were further aliquoted per well into a round-bottom 96-well plate. […] After incubation for 30 min at 4° C., cells are centrifuged (5 min, 350×g), washed twice with 150 μl/well BSA-containing FACS Stain Buffer (BD Biosciences), then cells are fixed using 100 ul BD Fixation buffer per well (#BD Biosciences, 554655) at 4° C. for 20 min, resuspended in 120 μl FACS buffer and analyzed using BD FACS CantoII. Binding of the anti-ROR1/anti-CD3 T cell bispecific antibodies to human ovarian cancer cells and T cells were evaluated and the median fluorescence intensity was determined gated on either human ovarian cancer cells or CD3-expressing Jurkat T cells and plotted in histograms and dot plots. […] Median fluorescence intensity for anti-ROR1/anti-CD3 T cell bispecific antibodies in function of antibody concentrations were plotted.

The target in assay [3] is T1, human ROR1. The assay can be described thus: flow cytometry on RPMI8226 cells. As for the experimental part:
a) ROR1 expression was assessed on primary CD19⁺ CD5⁺ CLL cells by flow cytometry. Briefly, cells were harvested, washed, counted for viability, resuspended at 50 000 cells/well of a 96-well round bottom plate and incubated with Alexa488-labeled anti human ROR1 antibody at 10 μg/ml for 30 min at 4° C. (to prevent internalization). At the end of incubation time, cells were centrifuged (5 min at 350×g), washed twice with FACS buffer, resuspended in 100 ul FACS buffer and analyzed on a CantoII device running FACS Diva software.
b) ROR1 expression was then assessed on B lymphocyte myeloma RPMI8226 cell lines by flow cytometry, using the methods described above.

The target in assay [4] is T1, human ROR1. The assay can be described thus: cell-based or functional assay.

As usually defined, the EC50 is the midpoint of the concentration-response curve.

Several values for one entry are separate records, joined by “and”; a condition that tells them apart may be missing. Equal entries are not always repeated.

T1 sequence (Q01973 30-937 limits assumed): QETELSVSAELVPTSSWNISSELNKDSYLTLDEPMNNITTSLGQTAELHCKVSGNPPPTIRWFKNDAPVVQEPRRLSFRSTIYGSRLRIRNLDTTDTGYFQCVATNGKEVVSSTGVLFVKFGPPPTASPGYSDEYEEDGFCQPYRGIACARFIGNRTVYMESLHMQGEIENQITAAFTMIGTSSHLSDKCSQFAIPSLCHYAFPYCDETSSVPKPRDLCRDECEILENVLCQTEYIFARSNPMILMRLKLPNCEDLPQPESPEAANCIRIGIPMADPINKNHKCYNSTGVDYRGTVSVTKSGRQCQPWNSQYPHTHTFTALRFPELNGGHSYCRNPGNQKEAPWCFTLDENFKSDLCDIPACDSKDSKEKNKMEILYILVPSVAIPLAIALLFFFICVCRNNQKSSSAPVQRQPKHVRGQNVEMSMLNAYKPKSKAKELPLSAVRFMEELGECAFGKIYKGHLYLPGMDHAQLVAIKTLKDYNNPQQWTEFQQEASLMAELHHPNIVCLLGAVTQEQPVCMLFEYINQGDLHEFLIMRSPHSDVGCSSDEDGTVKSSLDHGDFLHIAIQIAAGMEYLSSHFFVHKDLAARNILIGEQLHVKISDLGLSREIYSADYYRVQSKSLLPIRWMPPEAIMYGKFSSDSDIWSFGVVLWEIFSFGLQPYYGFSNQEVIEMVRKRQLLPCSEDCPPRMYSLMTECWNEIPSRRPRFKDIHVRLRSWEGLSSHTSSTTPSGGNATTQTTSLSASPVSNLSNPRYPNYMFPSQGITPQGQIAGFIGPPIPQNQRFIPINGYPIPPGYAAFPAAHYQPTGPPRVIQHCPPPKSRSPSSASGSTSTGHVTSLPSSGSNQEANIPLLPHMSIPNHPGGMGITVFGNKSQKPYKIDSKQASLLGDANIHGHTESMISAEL
T2 sequence (P07766 23-207): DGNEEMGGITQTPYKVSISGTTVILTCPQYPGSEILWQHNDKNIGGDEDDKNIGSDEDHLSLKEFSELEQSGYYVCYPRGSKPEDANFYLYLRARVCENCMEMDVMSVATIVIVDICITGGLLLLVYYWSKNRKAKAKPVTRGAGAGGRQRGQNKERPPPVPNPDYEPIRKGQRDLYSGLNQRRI

B1: ROR1 Mab2 IgG (antibody, V domains shown)
VH: EVKLVESGGGLVKPGGSLKLSCAASGFTFSSYAMSWVRQIPEKRLEWVASISRGGTTYYPDSVKGRFTISRDNVRNILYLQMSSLRSEDTAMYYCGRYDYDGYYAMDYWGQGTSVTVSS
VL: DIKMTQSPSSMYASLGERVTITCKASPDINSYLSWFQQKPGKSPKTLIYRANRLVDGVPSRFSGGGSGQDYSLTINSLEYEDMGIYYCLQYDEFPYTFGGGTKLEMK
notes: Tested as IgG; also called Mab 4A5
Consider B1, for which the concentration for a half-maximal effect (EC50) with human ROR1 [1] is 0.095 µg/mL and 0.64 nM; with human ROR1 [2] it was ~358 nM and ~53.4 µg/mL.

B2: anti-ROR1 IgG1 antibody (ROR1 Mab1) (antibody, V domains shown)
VH: QEQLVESGGRLVTPGGSLTLSCKASGFDFSAYYMSWVRQAPGKGLEWIATIYPSSGKTYYATWVNGRFTISSDNAQNTVDLQMNSLTAADRATYFCARDSYADDGALFNIWGPGTLVTISS
VL: ELVLTQSPSVSAALGSPAKITCTLSSAHKTDTIDWYQQLQGEAPRYLMQVQSDGSYTKRPGVPDRFSGSSSGADRYLIIPSVQADDEADYYCGADYIGGYVFGGGTQLTVTG
notes: Used Alexa488-labelled in some assays; also called anti-ROR1 antibody; anti-ROR1 IgG antibody
B2: the binding result in the assay with human CD3ε is “no binding (tested: 3 nM to 500 nM)”. For the same molecule, the concentration for a half-maximal effect (EC50) with human ROR1 [1] was 0.87 nM and 0.13 µg/mL; with human ROR1 [3] it was 0.087 nM and 0.013 µg/mL; in the assay with human ROR1 [2], ~4.62 nM and ~0.69 µg/mL.

B3: ROR1 Mab2-TCBcv (bispecific antibody)
heavy 1: not shown
heavy 2: EVKLVESGGGLVKPGGSLKLSCAASGFTFSSYAMSWVRQIPEKRLEWVASISRGGTTYYPDSVKGRFTISRDNVRNILYLQMSSLRSEDTAMYYCGRYDYDGYYAMDYWGQGTSVTVSSASTKGPSVFPLAPSSKSTSGGTAALGCLVEDYFPEPVTVSWNSGALTSGVHTFPAVLQSSGLYSLSSVVTVPSSSLGTQTYICNVNHKPSNTKVDEKVEPKSCDKTHTCPPCPAPEAAGGPSVFLFPPKPKDTLMISRTPEVTCVVVDVSHEDPEVKFNWYVDGVEVHNAKTKPREEQYNSTYRVVSVLTVLHQDWLNGKEYKCKVSNKALGAPIEKTISKAKGQPREPQVCTLPPSRDELTKNQVSLSCAVKGFYPSDIAVEWESNGQPENNYKTTPPVLDSDGSFFLVSKLTVDKSRWQQGNVFSCSVMHEALHNHYTQKSLSLSPGK
light 1: DIKMTQSPSSMYASLGERVTITCKASPDINSYLSWFQQKPGKSPKTLIYRANRLVDGVPSRFSGGGSGQDYSLTINSLEYEDMGIYYCLQYDEFPYTFGGGTKLEMKRTVAAPSVFIFPPSDRKLKSGTASVVCLLNNFYPREAKVQWKVDNALQSGNSQESVTEQDSKDSTYSLSSTLTLSKADYEKHKVYACEVTHQGLSSPVTKSFNRGEC
light 2: EVQLLESGGGLVQPGGSLRLSCAASGFTFSTYAMNWVRQAPGKGLEWVSRIRSKYNNYATYYADSVKGRFTISRDDSKNTLYLQMNSLRAEDTAVYYCVRHGNFGNSYVSWFAYWGQGTLVTVSSASVAAPSVFIFPPSDEQLKSGTASVVCLLNNFYPREAKVQWKVDNALQSGNSQESVTEQDSKDSTYSLSSTLTLSKADYEKHKVYACEVTHQGLSSPVTKSFNRGEC
notes: 2+1 TCB with charge variants, bivalent for ROR1 (Mab2) and monovalent for CD3; The chain set is printed under the name Mab2 ROR1-TCB (2+1); also called Mab2 ROR1-TCBcv; Mab2 ROR1-TCB (2+1)
Turning to B3, in the assay with human ROR1 [4], the “Mean EC50 (ng/mL), cell lysis of COLO-704 (n = 1), LDH release” value was determined as 14.3 ng/mL; the “Mean EC50 (ng/mL), cell lysis of OVCAR-5 (n = 1), LDH release” value was 10.7 ng/mL; the “Mean EC50 (ng/mL), cell lysis of PA-1 (n = 2), LDH release” value stood at 2.9 ng/mL; the “Mean EC50 (ng/mL), cell lysis of SKOV-3 (n = 5), LDH release” value came out at 141 ng/mL. Further, in the assay with human ROR1 [4], the “Mean EC50 (pM), cell lysis of COLO-704 (n = 1), LDH release” value is 73.3 pM; the “Mean EC50 (pM), cell lysis of OVCAR-5 (n = 1), LDH release” value amounted to 53.4 pM; the “Mean EC50 (pM), cell lysis of PA-1 (n = 2), LDH release, PBMC E:T 10:1” value is 14.6 pM; the “Mean EC50 (pM), cell lysis of SKOV-3 (n = 5), LDH release” value turned out to be 707 pM. For the same molecule, the binding result with human CD3ε is listed as “binds”.
